Data published in the supplement of paper PMC9170038.

Tests used:
MS2 coat protein [1] = test: apparent KD of MS2 coat protein, switch OFF state (with FMN for OFF switches, without FMN for ON switches); designed switch direction (-1 OFF switch, 1 ON switch): 1; higher = weaker reporter binding; details: FMN input: 0 or 200 uM; Eterna round: R93 (includes R88 designs)
Outline: (§1)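 SNAP-549-labelled MS2 coat protein was titrated onto designed RNA switches that had been transcribed on-chip from Illumina sequencing clusters. Amounts doubled from 0.7 or 1.5 nM to 3 µM in 100 mM Tris-HCl pH 7.5, 80 mM KCl, 4 mM MgCl2, with constant ligand or without. Apparent KD is the median per design of normalised cluster binding-curve fits.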

MS2 coat protein [2] = test: apparent KD of MS2 coat protein, switch ON state; designed switch direction (-1 OFF switch, 1 ON switch): 1; higher = weaker reporter binding; details: FMN input: 0 or 200 uM; Eterna round: R93 (includes R88 designs)
Outline: as §1

Sequence | apparent KD of MS2 coat protein (MS2 coat protein [1]) | apparent KD of MS2 coat protein (MS2 coat protein [2])
AUAAAUAAUGGUAAGGAUAUCCAAAAGAAAACAUGAGGAUCACCCAUGUAAAAGAAAAUAGUGUGGGAGAAGGUACCAUAUAAAU [SS2 M 15] | 41.6 nM | 18.6 nM
AAGAAACAUGAGGAUCACCCAUGUAAGAUAAACACAGGAUAUGCGAAAAGAAAGAAAGAAGCAGAAGGGUGAAGAA [Mat - Same State 1 - Tesla mod - 39] | 41.7 nM | 17.4 nM
AAAAUAAAAAGGCAGGAUAUCCAAAAUAAAACAUGAGGAUCACCCAUGUAAAUAAAAAUAAAGUGGGAGAAGGGUUAAAAAUAAAA [High Roller3] | 46.8 nM | 32.5 nM
AGAAAUAAAUCUCAGGAUAUGGGUAAAUAAACAUGAGGAUCACCCAUGUAAAAGAAAAUAAAAAACCAGAAGGGAGAAAAUAAGA [Designing denovo 2] | 39.2 nM | 16.2 nM
AAGAAACAUGAGGAUCACCCAUGUGUAAAUAUGGGAGGAUAUACAAGGACGUAAGUCAAGGUAGAAGGCCUAAGAA [Mat - Same State 1 - Meechl mod - D137] | 319 nM | 29.4 nM
AAAAAAAAAAGGCAGGAUAUCCAAAAAAAAACAUGAGGAUCACCCAUGUAAAAAAAAAAAAAAUGGGAGAAGGGCCAAAAAAAAA [Mat - Same State 2 - Rerun Eli mod - D85] | 64.4 nM | 63.1 nM
CGGAGACAUGAGGAUCACCCAUGUGAGAAGAGGCGAGGAUAUCGAAAGAAAGAAGAGAAACGAGAAGGCGCGAGGC [salish99-SS1-079] | 41.2 nM | 21.1 nM
GAAAAACAUGAGGAUCACCCAUGUGGAAAUAUGGGAGGAUAUACUAUGACGAAAGUCAAAGUAGAAGGCCUGAUAG [JL S1 M-MoE mod 5 In the Read] | 124 nM | 24.7 nM
GAAAAACAUGAGGAUCACCCAUGUGAGAUAAACACAGGAUAUGCGAAAAGAAACAAAUAAGCAGAAGGGUGAAAAG [Mat - Same State 1 - Tesla mod - 81] | 282 nM | 44.1 nM
AAGAAACAUGAGGAUCACCCAUGUGAGAUAAACACAGGAUAUGCGAAAAUAAACAAAUAAGCAGAAGGGUGAAGAA [Mat - Same State 1 - Tesla mod - 68] | 74.8 nM | 32.9 nM
AAAAAACAUGAGGAUCACCCAUGUAAAAAUAUGGAAGGAUAUGGAAACACGAAAGUGAAACCAGAAGGUCUAAAAG [77%, Mat - Mod of Eli, 10] | 21.3 nM | 17.1 nM
UAUCAUUACACGAAGGAUAUCGAAAAAAGAACAUGAGGAUCACCCAUGUAAAAUAAAACACAGAACGAGAAGGUCGAGGGUGAAG [JR_SS002_Sub701] | 34.2 nM | 15.8 nM
GACUGCGAUGUGAAGGAUAUCCGCGACUGGACAUGAGGAUCACCCAUGUAUGCUUAGAACAUGCCGGAGAAGGUCACGAAUGAUU [JR_SS002_Sub1217] | 32.3 nM | 20.6 nM
AAUACACAUGGUCAGGAUAUCGCAGCUAGGACAUGAGGAUCACCCAUGUCGUACGUAAAAGUAAAUGAGAAGGGACAGGGUGACC [JR_SS002_Sub407] | 30 nM | 37.8 nM
AAAAAAAAAAGACAGGAUAUCCAAAAGAAAACAUGAGGAUCACCCAUGUAAAAGAAAAUAAAAUGGGAGAAGGGUCAAAAUAAAG [Mat - Same State 2 - JL mod - D74] | 58.2 nM | 9.39 nM
UGAAAACAUGAGGAUCACCCAUGUAAAAACAUGGGAGGAUAUUGAAAAAAAAAAAAAAAACAAGAAGGCCCAAAAA [crooked] | 25.3 nM | 37.7 nM
CAUCAACAUGAGGAUCACCCAUGUCAUUGAUGUCAAGGAUAUGGGAGACAUAAAAUUCUUCUAGAAGGUGAAAGAU [Mainuson] | 176 nM | 636 nM
GAAAAACAUGAGGAUCACCCAUGUGAAAAUAUGGGAGGAUAUACAAAGACGAAAGUCAAAGUAGAAGGCCUAAGAG [Garnet 34] | 72 nM | 22.1 nM
CGGAGACAUGAGGAUCACCCAUGUGAGAAGAGGCGAGGAUAUCGAAAGAAAGAAGAGAAACGAGAAGGCGCGAGCA [salish99-SS1-068] | 24.4 nM | 22.9 nM
AAAUAAAAAAAAGAGGAUAUUCAUGUGAAAACAUGAGGAUCACCCAUGUAAAAAAAUAAAAAUAAAAAGAAGGAAAAAUAAAAAA [SS2: 83 No MS2] | 25.1 nM | 23.6 nM
GAAAAACAUGAGGAUCACCCAUGUGAUAAUAUGGGAGGAUAUACAAAGACGAAAGUCAAAGUAGAAGGCCUAAAAG [Garnet 35] | 73.2 nM | 40.5 nM
AUAAAACAUGAGGAUCACCCAUGUAGACAUAUGGGAGGAUAUACUAGAUCGAAAGAUCUAGUAGAAGGCCUUUAUA [JL Mod of Eli 8] | 54.2 nM | 19.2 nM

Sequence | apparent KD of MS2 coat protein (MS2 coat protein [1]) | apparent KD of MS2 coat protein (MS2 coat protein [2])
GAUAAACAUGAGGAUCACCCAUGUAGAAAUAUGGGAGGAUAUACAAAGACGAUAGUCAAAGUAGAAGGCCUAAAAG [77%, Mat - Mod of Eli - With 2 more U's] | 85.9 nM | 24.8 nM
AAAAAACAUGAGGAUCACCCAUGUAAACCUCAUGUAGGAUAUACAAAAAAAAAAAAAAAAGUAGAAGGACAAAAAA [Omei A variation 2] | 1970 nM | 4790 nM
CGGAGACAUGAGGAUCACCCAUGUGAGAAGAGGCGAGGAUAUCGAAAGAAAGAAGAGAAACGAGAAGGCGCGAGCG [salish99-SS1-076] | 42.4 nM | 32.8 nM
AAAAGACAUGAGGAUCACCCAUGUAGGCCAAAGCAAGGAUAUAGGCCACAGGGACGUGGACUAGAAGGUGCACGGC [Xereedes] | 107 nM | 21.9 nM
AACAGACAUGAGGAUCACCCAUGUAGGAUUAUGGGAGGAUAUACAAAGACGAGAGUCAGAGUAGAAGGCCUAGGAA [salish99-ss1-147] | 57.9 nM | 16.7 nM
AUAAGACAUGAGGAUCACCCAUGUAUUAGAGCAUGAGGAUAUAUGAAUAGUAAUAGGAGGAUAGAAGGCAUGGUUG [JR_SS001_Sub1218] | 138 nM | 92.6 nM
GAGGACAUAGUAUAGGAUAUAUGAAUAAUUACAUGAGGAUCACCCAUGUCCAUUUAUAUGGGAACAUAGAAGGGUGGUAGUUAUC [SameState2 Malc#33] | 202 nM | 102 nM
AAUAAGACUAGCAAGGAUAUCGAAAACGAGACAUGAGGAUCACCCAUGUAACAAGUAUAAGUAUACGAGAAGGUGCAGGGUGUAA [JR_SS002_Sub302] | 36.9 nM | 174 nM
AAGAAACAUGAGGAUCACCCAUGUGAUAAUAUGGGAGGAUAUACAAGGACGUAAGUCAAGGUAGAAGGCCUAAGAA [Mat - Same State 1 - Meechl mod - D140] | 61.6 nM | 30.5 nM
AAGAUACAUGAGGAUCACCCAUGUUAAGAGAGAUGAGGAUAUCCGAAUUAAUUAAAUUAAGGAGAAGGCAUGAAAA [LROPPY Same State 1 - v02_deltaG=2.1] | 26.9 nM | 18.2 nM
AAAAAACAUGAGGAUCACCCAUGUAAAAAAAAUGGAGGAUAUUGGAAAAAAAAAAAAAAACGAGAAGGCUAAAAAA [quick and simple] | 50.4 nM | 44.4 nM
AAAGAAAAACUAGAGGAUAUCUGAAUGAUAACAUGAGGAUCACCCAUGUGAAGAAAGGAAUAUGAGGAGAAGGCUAGAAGAAAAA [JL Nando mod 19] | 44.9 nM | 33.9 nM
AGGAGACAUGAGGAUCACCCAUGUGAGAAGAGGCGAGGAUAUCGAAAGAAAGAAGAGAAACGAGAAGGCGCGAGGC [salish99-SS1-031] | 23.5 nM | 27 nM
GAUAAACAUGAGGAUCACCCAUGUAGAUAUAUGGGAGGAUAUACAUAGACGAUAGUCAUAGUAGAAGGCCUAAUAG [77%, Mat - Mod of Eli - With 6 more U's] | 119 nM | 35.6 nM
AAGAAACAUGAGGAUCACCCAUGUAAGAUAAACACAGGAUAUGCAAAAGAAACAAAGAAAGCAGAAGGGUGAAGAA [Mat - Same State 1 - Tesla mod - 49] | 48.4 nM | 17.8 nM
GAAAAACAUGAGGAUCACCCAUGUAGAAAUAUGGAAGGAUAUACGAAGACGAAAGUCAAAGUAGAAGGUCUAAAAG [Garnet 96] | 19.5 nM | 17 nM
AAACCACAUGAGGAUCACCCAUGUAAAAUUAUGGGAGGAUAUACUAGAAGAAACAAAAUAGUAGAAGGCCUAAAAA [75%, Ex sub1, 33] | 74.2 nM | 15.9 nM
AAAGAAAAACUAGAGGAUAUUUGAGUGGUAACAUGAGGAUCACCCAUGUGAAGAAAGGAGCAUGAGGAGAAGGCUAGAAGAAAAA [JL Nando mod 23] | 68.7 nM | 21.5 nM
AAUACACAUGGUCAGGAUAUCGCAGCUAGGACAUGAGGAUCACCCAUGUAGCAUGUAACUGAAACCGAGAAGGGACAGGGUGAUC [JR_SS002_Sub412] | 85.1 nM | 61.4 nM
GUAAAACAUGAGGAUCACCCAUGUAGAAAUAUGGGAGGAUAUACGAAGACGAAAGUCAAAGUAGAAGGCCUAAAGU [Mat - Same State 1 - Eli mod - D111] | 54.9 nM | 26.1 nM
ACUACACAUGAGGAUCACCCAUGUCAGGUGGGACUAGGAUAUUAUAAACCAGAGUAAAAAUAAGAAGGAGUAGAAA [JR_SS001_Sub308] | 46.6 nM | 51.8 nM
